Measured values as given in paper PMC6200646 (Journal of immunology (Baltimore, Md. : 1950), 2018).

How the values were obtained:
[1] = molecular target: T1, biot-mCD25(22-186)-BioP-TVMV-His, His cleaved (mouse, UniProt P01590 22-186, biotin); assay: SPR
T1 sequence (looked up): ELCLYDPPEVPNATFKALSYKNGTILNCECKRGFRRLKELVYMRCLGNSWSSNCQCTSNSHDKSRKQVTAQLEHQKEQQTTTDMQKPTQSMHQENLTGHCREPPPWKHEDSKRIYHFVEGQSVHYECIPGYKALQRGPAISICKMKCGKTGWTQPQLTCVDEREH

[2] = molecular target: T2, mCD122(27-241)-hFc-D/mCD132(23-263)-hFc-K heterodimeric Fc fusion (mouse, UniProt P16297 27-241; P34902 23-263); assay: SPR
T2 sequence (looked up) 1: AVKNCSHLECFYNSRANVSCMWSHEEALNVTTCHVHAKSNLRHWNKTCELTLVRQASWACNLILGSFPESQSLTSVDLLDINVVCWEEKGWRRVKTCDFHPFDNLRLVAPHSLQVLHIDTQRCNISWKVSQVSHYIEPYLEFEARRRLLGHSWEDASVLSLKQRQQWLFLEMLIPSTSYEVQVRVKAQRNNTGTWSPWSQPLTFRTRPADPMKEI
T2 sequence (looked up) 2: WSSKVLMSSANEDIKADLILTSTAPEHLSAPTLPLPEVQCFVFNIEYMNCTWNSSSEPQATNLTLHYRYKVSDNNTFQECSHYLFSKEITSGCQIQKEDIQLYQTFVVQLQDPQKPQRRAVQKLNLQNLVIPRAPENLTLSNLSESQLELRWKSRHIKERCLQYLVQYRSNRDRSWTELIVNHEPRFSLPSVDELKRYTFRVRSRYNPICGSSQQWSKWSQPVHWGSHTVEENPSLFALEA

[3] = molecular target: the molecule itself; assay: SEC-MALS
[4] = molecular target: T3, human CD25, captured for SPR (human, UniProt P01589 22-240); assay: SPR
T3 sequence (looked up): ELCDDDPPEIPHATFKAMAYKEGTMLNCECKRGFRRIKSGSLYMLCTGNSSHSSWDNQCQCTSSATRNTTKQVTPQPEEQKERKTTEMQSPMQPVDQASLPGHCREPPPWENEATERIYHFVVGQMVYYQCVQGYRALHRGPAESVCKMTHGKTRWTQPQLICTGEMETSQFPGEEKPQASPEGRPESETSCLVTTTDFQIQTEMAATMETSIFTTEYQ

B1: mIL-2/hCD25 mouse/human chimeric fusion protein with the 12 amino acid (G3S)3 linker (other, mouse | human)
chain: APTSSSTSSSTAEAQQQQQQQQQQQQHLEQLLMDLQELLSRMENYRNLKLPRMLTFKFYLPKQATELKDLQCLEDELGPLRHVLDLTQSKSFQLEDAENFISNIRVTVVKLKGSDNTFECQFDDESATVVDFLRRWIAFCQSIISTSPQGGGSGGGSGGGSELCDDDPPEIPHATFKAMAYKEGTMLNCECKRGFRRIKSGSLYMLCTGNSSHSSWDNQCQCTSSATRNTTKQVTPQPEEQKERKTTEMQSPMQPVDQASLPGHCREPPPWENEATERIYHFVVGQMVYYQCVQGYRALHRGPAESVCKMTHGKTRWTQPQLICTGEMETSQFPGEEKPQASPEGRPESETSCLVTTTDFQIQTEMAATMETSIFTTEYQGG
modifications: glycosylated
- fold stronger affinity than mIL-2/mCD25 to mCD25 [1]: 10 fold
- fold weaker binding than mIL-2 to mIL-2Rβ/γc [2]: 45 fold
- stoichiometry N [3]: 2

B2: mIL-2/mCD25 fusion protein with the 12 amino acid (G3S)3 linker (other, mouse)
chain: APTSSSTSSSTAEAQQQQQQQQQQQQHLEQLLMDLQELLSRMENYRNLKLPRMLTFKFYLPKQATELKDLQCLEDELGPLRHVLDLTQSKSFQLEDAENFISNIRVTVVKLKGSDNTFECQFDDESATVVDFLRRWIAFCQSIISTSPQGGGSGGGSGGGSELCLYDPPEVPNATFKALSYKNGTILNCECKRGFRRLKELVYMRCLGNSWSSNCQCTSNSHDKSRKQVTAQLEHQKEQQTTTDMQKPTQSMHQENLTGHCREPPPWKHEDSKRIYHFVEGQSVHYECIPGYKALQRGPAISICKMKCGKTGWTQPQLTCVDEREHHRFLASEESQGSRNSSPESETSCPITTTDFPQPTETTAMTETFVLTMEYKGG
modifications: glycosylated (N- and O-linked carbohydrate)
- fold weaker apparent Kd than mIL-2 to mCD25 [1]: ~1000 fold
- fold weaker apparent Kd than mIL-2 to mIL-2Rβ/γc [2]: ~680 fold
- stoichiometry N [3]: 2

B3: mouse IL-2 (ligand, UniProt P04351 21-169, looked up)
chain: APTSSSTSSSTAEAQQQQQQQQQQQQHLEQLLMDLQELLSRMENYRNLKLPRMLTFKFYLPKQATELKDLQCLEDELGPLRHVLDLTQSKSFQLEDAENFISNIRVTVVKLKGSDNTFECQFDDESATVVDFLRRWIAFCQSIISTSPQ
- fold weaker Kd than mIL-2 to mCD25 [4]: ~234 fold
